This note sets out measurements from the supplement of paper PMC12042874.

± gives the uncertainty stated by the source.

The nature of this data set: amyloid nucleation score (Sup35N fusion, yeast selection) (log enrichment); library NNK1; higher = more nucleation; inactive = no reads after selection. The method in brief: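 On medium lacking adenine and uracil, psi-negative yeast expressing peptides of 20 random codons fused to Sup35N were grown 7 days at 30°C after a 24-hour induction with 100 μM copper sulfate. Illumina sequencing of input and output plasmid inserts gave the reads, and sequences under 100 input reads were excluded. The nucleation score is the DiMSum log enrichment of output over input reads, centred on the mode score of non-aggregating sequences.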
GAQATFEVHCLERTVWVYR came in with an amyloid nucleation score of -0.691 ± 1.4. Next, PGSGCNVFKL: -0.403 ± 0.25; YNQISLD: -0.38 ± 1.1.

HYGVDEAFGRWDGVLMCQKV returned an amyloid nucleation score of -0.134 ± 0.4.

Consider KITIGINS, for which the amyloid nucleation score amounted to 0.4 ± 0.33.

EYLLNNPVGRCFDLLFNSIG: the amyloid nucleation score was -0.881 ± 0.66. Consider PCSFNA, for which the amyloid nucleation score is -0.267 ± 0.72. NLSFLK had an amyloid nucleation score of -0.313 ± 1.3. For GRLISETNLAKSYSL the value was -0.187 ± 0.33; for MQSMQL, “inactive”; for LLCYCVAELLDNTRRAT, 0.328 ± 0.57. In turn, STYYVVRDFFLDSSTGTVYS yielded an amyloid nucleation score of -0.031 ± 0.61. With QSSLGNLTCANFWVTTTEVG, the amyloid nucleation score result is “inactive”. Substance LKTWVDFRDYLLAPKAVCIY came in with an amyloid nucleation score of 0.161 ± 0.57.

In turn, CCAISMFFELHNLHVTVMGS had an amyloid nucleation score of 5.54 ± 0.057.

Take ALPYVYRTLVNNLLIPSSGL: the amyloid nucleation score is 1.02 ± 0.67.

In the case of SLGPFRDVSCYVVAGIQTVN, the amyloid nucleation score was -1.66 ± 2.7. As to MCIFICLPVTVYDNIFHSFL, the amyloid nucleation score was 6.22 ± 0.096. For the substance TFFRTTCTICCM, the amyloid nucleation score amounted to 5.01 ± 0.053. Turning to RPGGGAACAVRGRLPVCQLG, the amyloid nucleation score was -1.13 ± 0.96. Turning to TETQECVSRYVILGGGAGVS, the amyloid nucleation score was 0.271 ± 0.71. Take FWTRCVFLLRGNSMWESCRG: the amyloid nucleation score was -0.385 ± 0.9. CYVKTYKIKSLRR showed an amyloid nucleation score of -0.07 ± 1.4. Regarding RRVGWLRTRSG, the amyloid nucleation score was determined as 0.731 ± 0.41.

On to IANGHKSSRCMQKDSSTS, for which the amyloid nucleation score came to 0.586 ± 0.35. ILRNDMSATVNM had an amyloid nucleation score of 0.97 ± 0.17.

Consider SHRSFFCSSLWMNYYCLISS, for which the amyloid nucleation score entry was “inactive”.

The substance IKFERAIRSSVGKQRC displayed an amyloid nucleation score of 0.784 ± 0.71. In turn, TCVGFSGVGKGNSSIKVKEA came in with an amyloid nucleation score of 0.351 ± 0.42. CRSSVLRSVCINNLSKCSLV: the amyloid nucleation score result was “inactive”. Next, PIDAPISQLGLCMFGYQEGL: -0.999 ± 1.3; VFYQLCDWYNFGF: 5.68 ± 0.1; FLGGDTRIDHGTLWWSLIRQ: 0.032 ± 0.35. GYSYTCPLS had an amyloid nucleation score of -0.217 ± 0.36. Substance ECAIKG came in with an amyloid nucleation score of 1.38 ± 0.69. Regarding FSNARWASRSLKSARMACVA, the amyloid nucleation score worked out at 0.554 ± 0.81. The substance ESMDSWDYVLNISAEMVYCR returned an amyloid nucleation score of 0.366 ± 0.54. The substance TASHFGNKWV displayed an amyloid nucleation score of 0.352 ± 0.32. As to PSTVCMFPRWLAVVRLVLQT, the amyloid nucleation score is 0.79 ± 0.35. Take LSFLLEASNHDWDGSLG: the amyloid nucleation score result was “inactive”. LSHRGVLVAMDRTMYPM yielded an amyloid nucleation score of -0.621 ± 0.42.

Take VSNTWYLTVNLFLYIIPCN: the amyloid nucleation score was found to be 6.755 ± 0.058. With CTLSYSCFLVVLSFYGQSSF, the amyloid nucleation score turned out to be 0.366 ± 0.24.

In turn, VFSKNFRVVIFTSNRSLFNK came in with an amyloid nucleation score of 0.595 ± 0.72.

Regarding GGVLLRCRTSDNTGNQRVW, the amyloid nucleation score result was “inactive”. Substance THCLDCVPMNRVDNRCETFS showed an amyloid nucleation score of 0.028 ± 0.36. WILVGMGLGFHFFW: the amyloid nucleation score is 0.86 ± 1.1. SWASKRCSPCCDGSGFPMYL had an amyloid nucleation score of -1.37 ± 2.7. Next, QWCSRRDMCFRSSVILCLWR: -0.035 ± 0.75; SWNYLVTDAKRRDGGEERVR: -0.851 ± 1.7. Turning to WLLVNMDDYLAGYCITHFRN, the amyloid nucleation score was -0.359 ± 0.58. As to LKVLYLRSDRVSWVSKPLVI, the amyloid nucleation score is -0.405 ± 0.87. The substance GSNPVVSLW gave an amyloid nucleation score of 0.076 ± 0.44. As to NKQARVRETRVGLTCVGMLG, the amyloid nucleation score was -0.321 ± 1.2.

For SSKYTCFSDYKKCVYTLWRL, the amyloid nucleation score stood at 0.292 ± 0.6. Substance CLSELGFAVPTSWTICILCT had an amyloid nucleation score of 0.656 ± 0.59. PECTSVRATGIGDWWEDRGA showed an amyloid nucleation score of -1.46 ± 2.7. In the case of RLLVFQSCKFVRGTSLCLVT, the amyloid nucleation score turned out to be 3.66 ± 0.069. AQLGDDYVRCHSTILSTRRL gave an amyloid nucleation score of 0.167 ± 0.62. In the case of NLLHESCRVLYS, the amyloid nucleation score stood at 0.398 ± 0.5. For CNYTSPPLSVKDRASLCHTN the value was -0.301 ± 0.93; for YIHGGVMCKDPAPFSYFASI, -0.114 ± 0.59; for DLCQEPIG, -0.379 ± 0.3. Next, FANLVYGQLRVNDTLVSCT: -0.044 ± 0.33; CGSRLGEMRAVTGPHLTPMR: -0.233 ± 1.1. In turn, SMSPVSSVTN returned an amyloid nucleation score of 0.07 ± 0.35.

On to TGYVVVMVYCWSCLGGQSVA, for which the amyloid nucleation score was found to be 0.119 ± 0.89.

WSYAIKAISSMGAVTDASRM registered an amyloid nucleation score of -0.136 ± 0.31. THCCSRYTPERVC displayed an amyloid nucleation score of 0.47 ± 0.4.

The substance TNRVTGSLWDEVWSDPGPEC displayed an amyloid nucleation score of -1.28 ± 0.8.

CKCWFM: the amyloid nucleation score is 0.307 ± 0.52. VLCPW had an amyloid nucleation score of -0.283 ± 0.44. Next, TRNVMFINVALHFSNLVGWC: 4.21 ± 0.12; TLRHALLRQTLSNLRQDGV: -0.009 ± 0.3; GICHSPGWCC: 2.69 ± 0.14.

For DFSCGRMGFALERSLAMYRA, the amyloid nucleation score stood at 0.041 ± 0.53. As for MYKAEICLMSLENRPLMLPF, the amyloid nucleation score is 0.203 ± 0.44. YINLDHCRMSSSTA: the amyloid nucleation score was found to be 0.85 ± 0.65. For LPCKIKKWIHWEFRSEFN, the amyloid nucleation score was -2.06 ± 2.7. Turning to KSTPEYRSKDSMCELHKDMC, the amyloid nucleation score result is “inactive”. Substance DFYLWPGMFSKYLGLNATLS showed an amyloid nucleation score of -0.604 ± 0.57. In the case of VTYKEQNGLLLFAPDSVQRD, the amyloid nucleation score entry is “inactive”. Substance CRVPIRCRGDLLSLRAVRFR registered an amyloid nucleation score of 1.88 ± 0.14. Next, FLDYKTSSGHRLYLDRAKES: -0.492 ± 0.36.

As for ARGCD, the amyloid nucleation score was -0.247 ± 1.1. Take AVCIMFRVNRFIRIVNTGGC: the amyloid nucleation score worked out at 0.042 ± 0.58. Next, FLDLSGMPGSVWFDIGVSCF: -0.716 ± 1. Substance LRFMCRYFLRQRNYEPWFYG had an amyloid nucleation score of 0.1 ± 0.55. For GLASVRILGRMQV the value was -0.106 ± 0.36; for YCGSYHLGSFGIYSTVEIYC, 1.37 ± 0.9. For the substance YASTSMWVP, the amyloid nucleation score is -0.401 ± 0.35.

Substance MYHLSGVSYMFSLCSDCRRL showed an amyloid nucleation score of 8.122 ± 0.066. Regarding TFQCCLDVCASVC, the amyloid nucleation score was determined as 0.273 ± 0.46.

GFFPGHHSFLEATSLVSSLF had an amyloid nucleation score of 1.4 ± 0.63.

IWNSVARFRYSSMGFVVSAG returned an amyloid nucleation score of 0.898 ± 0.93. For LHTKVV the value was 0.431 ± 0.77; for SYYQKCNAKNIF, -0.576 ± 0.4.

As to KLDMGVLPFANWSVDT, the amyloid nucleation score is -0.032 ± 0.28. For DFYYNALIREVGQ, the amyloid nucleation score was -0.825 ± 0.75. Next, CSENT: -0.875 ± 0.52. The substance DDSHVSCDYTLYGWSFGYMC gave an amyloid nucleation score of 2.37 ± 0.1.

PDNRAINVFTLPVAVS displayed an amyloid nucleation score of 0.71 ± 0.44. In the case of YWPGLGFMFDNYSI, the amyloid nucleation score was found to be 0.555 ± 0.71. Next, PYFVIKSRWGQNRS: “inactive”. In turn, RYTRSGLIDMFTNSSTDAHS registered an amyloid nucleation score of 0.115 ± 0.43. The substance CGLLWSCSKLH came in with an amyloid nucleation score of 1.56 ± 0.42. In turn, FSLLYV came in with an amyloid nucleation score of 0.321 ± 0.67.

ENVCFLTKM: the amyloid nucleation score is 0.423 ± 0.26. Substance SGAPLDAGFNIA showed an amyloid nucleation score of 0.227 ± 0.49. ISIQSLRLSSSSWNLTLHCG showed an amyloid nucleation score of 3.25 ± 0.097. For FSDQTFSDLGMIEFRGFLWS the value was 0.343 ± 0.39. Substance KLRRDSFVFQVKFHLNKGML returned an amyloid nucleation score of -0.384 ± 0.46. The substance CWCMFCTASL gave an amyloid nucleation score of 7.637 ± 0.064. For MRPVGTRFSSIP the value was -0.201 ± 0.55.

Take YGGLGYSLIGCYADLDGVIL: the amyloid nucleation score was determined as 1.47 ± 0.39. In the case of YDYGVESLRLVVLCNDLWFL, the amyloid nucleation score is -0.346 ± 0.4. GYRCSWNDPMVNTVFFV returned an amyloid nucleation score of 0.98 ± 0.56. For CEGCDMGWLRSTNRQLMAYL the value was “inactive”; for DYRIEVSLSVVYCFGLNMRN, 2.38 ± 0.082; for TGCLVTWNIENLLRHQTFAM, 0.227 ± 0.38.

For LLICADVITFCFECTMRTGF, the amyloid nucleation score is 4.13 ± 0.064.

In the case of GGGQAELEGR, the amyloid nucleation score worked out at 0.365 ± 0.45. TSHSETSEAFRRFSAPFLAN returned an amyloid nucleation score of 0.497 ± 0.64. As for RLTDRHLLWIIMQELNGFLV, the amyloid nucleation score was -1.09 ± 2.7.

As to TLLSNWVEMNPLYFMLDLPY, the amyloid nucleation score was 0.225 ± 0.48. Regarding QYEALLPLTKKNRTNTWQRQ, the amyloid nucleation score result was “inactive”. Substance KSGSKCRLRGSDNSNRLSVM gave an amyloid nucleation score of -0.335 ± 1.5. In the case of ERRLTTFCCMWANLGVADGT, the amyloid nucleation score was 0.436 ± 1. Take YSVGFTCRMVTLSASWYWLW: the amyloid nucleation score turned out to be 0.136 ± 0.32. For RCMLGLLNFIESIHGGR the value was 4.89 ± 0.095; for DWVWWRTPSELVVYGADNWR, -0.328 ± 0.84. As for SKLLNVDLTPCRSRTTLFVC, the amyloid nucleation score is 1.29 ± 0.47.

With YATGDCDVLMYRLGMNKKSS, the amyloid nucleation score was determined as 0.488 ± 0.45. Consider TDIVVCSCDGFWKYSYIGGL, for which the amyloid nucleation score was 2.18 ± 0.12. Substance FLVSCYPWVE displayed an amyloid nucleation score of 0.248 ± 0.71. Consider CSVKCKTRCVYRFMESKWF, for which the amyloid nucleation score was -0.021 ± 0.32. On to IMETHLFLTETGNLLSKMGD, for which the amyloid nucleation score result is “inactive”. FSMGSVWTEERQLCWVPMVW came in with an amyloid nucleation score of 1.11 ± 0.94. HFKAYAFLDPFPLAPKL had an amyloid nucleation score of 0.463 ± 0.64.
